experiment: soluble on expression in E. coli; label from the status in PepcDB or PDB records

Sequence	soluble on expression in E. coli
KNNINKTRMNDLNREETRLKTFTDWPLDWLDKRQLAQTGMYFTHAGDKVKCFFCGVEIGSWEQEDQPVPEHQRWSPNCPLLRRRTTNNVPINAEALDRILPPISYDICGANDSTLE	soluble
MGSDKIHHHHHHMTVHWRERVGNQRDWVWRGWRTRYTYIRPSQEGQEKTPLILLHGFGASIGHWRHNLEVLGESHTVYALDMLGFGGSEKAPANYSIELWVEQVYDFWRAFIRQPVVLIGNSNGSLISLAAAAAHPDMVKGIVMMSLPDPSLEQEMIPPFLRPVVTTIKNIVASPIFLKPVFYFVRRPSILRRWAGIAYANPAAITDELVDILAGPPQDRGSARAFSALFKAAIGVNFSPSVKAILPTLQIPMLLIWGNKDRFVPPILANQFAQYNEKLQLLNLDDVGHCPHDECPEQVNKAILAWMDKSLGDY	not soluble
MSAEKPEVIITYCIQCQWLLRAAWLAQELLSTFSDDLGKVSLQPGTGGAFRITCDGVQLWERKADGGFPEAKVLKQRLRDQIDPARDLGHNDRQTPSNPQ	soluble
MLHFYQAVAQLMEHIRGAKAHDVRFTQPLADKPPFALIDWLDAQPIFPKFYWQSRDTREEVVALGQVYTFTDPAPAYAILGDEQRVWGGRSFDGHTAKNPRCMSSFFFLPQIELIRRDEQWLLAVNINNEPQRTLTALQKLLVEVPTLRSMTAHVTRVEHTPTAANWHDLVEKVLAGITEKQFKKVVLARKTTLTLDAPLSAAQLLKASHAQNHHSFHFLLALDSRHSFMGSTPERLYLRHGQNLETEALAGTIGRGANATQDMELAHWLTHDSKNLNENQLVVEDIIESLAPHAEQIHTQREAQLVRLRKVQHLKKRIDAQLKSGVNGVQLLGVLQPTAAVAGLPRQAALAFIAENEPFARGWYAGSMGYFSHAQAEFCVAIRSALVVDKQVQLYAGAGIVPGSIAEHEWQELDKKLSTLLSLITDRLPLGVAS	not soluble
MAHHHHHHMDPPAAFERRYPELGALRLHFDVLDSTQLYCKRNMARLLQNGSLQDDKHMVVVTCNEQTNGIGTRDTKKKQDRMWLSERGNLFTTFVLLWKREDLEKVKYLSQTSTVAVSKTLEHFHLVTQIKWVNDVLVNEKKIAGCLVHLHYLDDFPSLSRYACVMVGIGINITLRDKDNLLGDNYTSVQKELQRDFGSFCSIPSVEDVMDKLILNLHAVFTKLREEGFSSFLDYITPRLLYKDRNVLVDTDGELIAGHLQGLLHDGSLLLLRGENELVRVNTGHLRLG	soluble
MGSDKIHHHHHHMVWRDAEGQVHALEDRCPHRGARLSLGWNLGDRVACWYHGVEVRADGVVADVPAVHECPMTGTKCLKSYPVIEQHGAIFIWFGIDANEQPAPLEFPEQLASEEWSSFLCQADWKVNHQYAIDNVMDPMHGTYLHCTSHSMAEGERTAEMKHRTTENGFVFEKEGQTGVNFDWVEYGSTGASWLRLSIPYRKQFGPGGEFWIVGYATPIDANNTRVFFWRCRKVSGWQRNVWRFLYRNHLEQLHWDVLEQDRIILENLAPNARAREFLYQHDVGLARLRRLMKKEAEKQLKKIAALNASNRIEMQEEAHG	not soluble
MAHHHHHHMALYIIGLGLGDERDVSVKGKELIEMSDVVYLESYTSVLFVSKNTLEEFYKKNIKEVDRNLAEENCEEILKEAINKKVSFLVVGDPLCATTHHDIILRAKKKNINVQVIHNASVMSAIGESGMQLYNFGQTVSIPYFEGNYKPTSFYDKIKVNLDNNFHTLCLLDIKVKERTIENMMKNKNIYEPSRFMTVNEAIEQLLYCEEVLKKNVITDNTRGIAIVRIGSDSQQIVSGSLLALKSVSYNDPLHSLIICAPTLHDVEREYFEMYQHRC	soluble
MAHHHHHHMLQRLQLFRSTLVNFLEWRNFSDVVHGCYVRVLLEMRSTEENRRESPDNYYIALVKGAQRGPVYSGFSADAVTTEWHIVIELPPCFRSTQNGNVVQLNSISNSPFRQAEYQNWVDMTNETRELSFPSLPQLQFRLGMLEEHKQQALTPEPRRHRNGEDAEAAALREWALEEKRKRITEEIMVTHVKLRRIDQLKALSLEDLQEVEREILDLITGVRISINERSKCMLCHNRICTEICYPCKHQVLCKDCAKSIRGRCPAPKCKTPVQYTFEAFTS	not soluble
MTREHPPEPLDFFIWTVEDVGSWLEEINLGGYRQIFKENGVNGEYLESMSVFTTEQILHFIRRHHMKWGDFITLCKELRRIKVACLKGEQRVRRPWWAPSCLSVVFVKAAKRNRQSRVVSLKLES	not soluble
MSRLSSLLILVCIGALLVETFAAPDEPIIVRSKRQQCRCVKNPNGGLTCSCAKGPADGSSSSIGSGVQYDAPQSADIANQLTAMSQQTTGMSGARCGCIQIVIQGAPQYNCQCGDQSGNPLPTTTTMAPTTSSTTTTTTTTTQAPTTTSTTTTQSPVSYPQVPTQTQGSNGACNCIMISITSPQTAQYQCQCAQPQQQQQQQVQYDTYEYAPVQTTPTPMPTTQVPTTQAPTTQAPTMPTSSSPVQYADTAATQYPLTTTCVMYVNVPTTACSCLPQYDQCAQNVCCLKSKFRSYKKAEETQPSTLDVLMNVLQTIKTKLE	not soluble
MIRVHSYESMGTFDGPGLRLVVFLQGCNFRCLYCANPDTIDTKGESTETAIDEIVRMAVSQKAFFGKKGGVTFSGGEPTLQAKALIPLFQRLKEQNIHICIDTNGSIWNEEVEELLKWTDLVLLDIKEFNNVRHRQLTERSNEQTIRTAEWLEKNGKPFWLRYVLVPGYSSFEEDIRALGEHFKNYHMIQRVEILPYHTLGVHKYEAMGKEYKLNGIKENTLEQLETAKTLFGEYFNTVYLN	not soluble
MKQHILVLEDANQRRTIILDEQQYSIGRHSGTSIQIHSRQASRHHATLMRKTNSKTNEECFWIIDGDLEGNKSQNGVFVNGEKRLIHELKNGDLINFGCSINALEHHHHHH	not soluble
MPVSDQLIDQLLADYESPQDLLGEQGILRQLTKKLAERALEAEMELHLGYAKHDAAGFNTGNSRNGKSRKSVRSIHGDIELETPRDRNGSFEPKLIKKGEKQLGGFDERIVSLYARGMSTRDIQAHFEETYGVEVSPTFISQITNAVLDEVKAWQLRPLAPVYPIVYLDCLVVRSRDSGSIQNKSVYLALGVNTDGEKELLGLWIAQTEGAKFWLSVMNELKNRGVEDIFIACVDGLKGFPDAIEAVYPKTQVQLCIVHQIRNSLRFVSWKERKAVAADLKTIYGAATLQQAELALEQFAKTWDKQHPSISKSWRENWTRLSVFFDYPPEIRKVIYTTNAIESLNASLRQVTKTRRSFPSDDAVLKLLYLALHQIAKKWTMPLRDWKPAMTQFMIMYSDRVSL	not soluble
MSLENLARFLSTTLKQLRQQRGWSLSRLAEATGVSKAMLGQIERNESSPTVATLWKIATGLNVPFSTFISPPQSATPSVYDPQQQAMVITSLFPYDPQLCFEHFSIQMASGAISESTPHEKGVIEHVVVIDGQLDLCVDGEWQTLNCGEGVRFAADVTHIYRNGGEQTVHFHSLIHYPRSEGGSHHHHHH	soluble
SNAFHPVYSVQLEQKLVEKFNLKRALISLDQPNTNEQRKQVAALVSSYLNNNLQEGMAVAVGQGQNVAAVADHAGIVTQRNARFVSAIGGTHRSGDIINADHICRRLAKKYGGSSETLYAPAYVNDPSLRSAFMEHATIKETLSQARKAEFALVGIGDMDENSHMVKLGFFTPKEFVEARLNDGIVGDIGGFDFFKLDGTDADTLMRGRVIGLEMEDLRQIPNVVAMASESRKALSIMGALRTGVIDVLATSVSCAMALLNLAENEE	soluble
SGGAVSAGEDNDELIDNLKEAQYIRTELVEQAFRAIDRADYYLEEFKENAYKDLAWKHGNIHLSAPCIYSEVMEALDLQPGLSFLNLGSGTGYLSSMVGLILGPFGVNHGVELHSDVIEYAKQKLDFFIRTSDSFDKFDFCEPSFVTGNCLEISPDCSQYDRVYCGAGVQKEHEEYMKNLLKVGGILVMPLEEKLTKITRTGPSAWETKKILAVSFAPLIQPCHSESGKSRLVQLRSPSFVQGWSVVVLSQLTAASTFQAEAILPSQSPTWLRLQVLATMPN	not soluble
MSLLDIIFPPNNNDDDFYGQHFSLIDSIIVKVAQDSNLSQSLRVYQYLYSWRLFGCMVAVVNNNKTLELGDKRGAIEALYEFITRFRIENPTGDVERKVKLKILEIYMIILNLLKSFENNQDQWFLKTNSYKETTTTRRREGHHHHHH	soluble
MSLLAQLDQKIAANGGLIVSCQPVPDSPLDKPEIVAAMALAAEQAGAVAIRIEGVANLQATRAVVSVPIIGIVKRDLEDSPVRITAYIEDVDALAQAGADIIAIDGTDRPRPVPVETLLARIHHHGLLAMTDCSTPEDGLACQKLGAEIIGTTLSGYTTPETPEEPDLALVKTLSEAGCRVIAEGRYNTPAQAADAMRHGAWAVTVGSAITRLEHICQWYNTAMKKAVL	not soluble
MGSDKIHHHHHHMRWFSLATAFLWGYYGFDNFGDELMFKACVNLLRELGFGTIYTPLPKGKKSMGVTSVDRYSIKLLSLLKKSQVSIAGGGGLFQDVTSLRSLLYYYSISKASLLMDKPLIFFGNSVGPLRRRLSKKLVWDVFKDKRTVFIARDPASYRYVKMVGGNAVLGTDPAIIHLMESDMEKKTEKKAVFFLKSPMDVSYILKSLRDQGINDFVISTAFPGDHSYLPPLRNGENLLEEIVSSSIVITERFHPALVAAYFEIPFIIVDCQKARRFFARYTKEDHFFSKRDPLEISLKVPVVLKKELKLKEKMKNDAIEMKEMLKGVLKGW	not soluble
MVSATYSVVYETGKKLNSGFDNWGWDSKMSFKDNSLVLTADPDEYGAISLKNLNSNYYGKGGCIYLQVKTETEGLVKVQGVRGYDETEAFNVGSFRSSSDFTEYKFEVDDEYQFDRIIVQDGPASNIPIYMRYIIYSTGSCDDHILEHHHHHH	soluble
MTLEIRPAVPADAEQILAFIIELADYERARHEVVTDVEGIRRSLFAEGSPTRALMCLSEGRPIGYAVYFYSYSTWLGRNGIYLEDLYVTPEYRGVGAGRRLLRELAREAVANDCGRLEWSVLDWNQPAIDFYRSIGALPQDEWVRYRLDGEALRKMAE	soluble
MFSKLAHLQRFAVLSRGVHSSVASATSVATKKTVQGPPTSDDIFEREYKYGAHNYHPLPVALERGKGIYLWDVEGRKYFDFLSSISAVNQGHCHPKIVNALKSQVDKLTLTSRAFYNNVLGEYEEYITKLFNYHKVLPMNTGVEAGETACKLARKWGYTVKGIQKYKAKIVFAAGNFWGRTLSAISSSTDPTSYDGFGPFMPGFDIIPYNDLPALERALQDPNVAAFMVEPIQGEAGVVVPDPGYLMGVRELCTRHQVLFIADEIQTGLARTGRWLAVDYENVRPDIVLLGKALSGGLYPVSAVLCDDDIMLTIKPGEHGSTYGGNPLGCRVAIAALEVLEEENLAENADKLGIILRNELMKLPSDVVTAVRGKGLLNAIVIKETKDWDAWKVCLRLRDNGLLAKPTHGDIIRFAPPLVIKEDELRESIEIINKTILSF	soluble
MGSDKIHHHHHHVQQSQIMEDKIISAVRTFASSINSGGKVVADMSELIEVTSQLPLSSFDYWERFIRSEFSTALRESNSPKWKVWSKPKELVTWLDLISWDGYKREKALRALSGAAPNTFFFSLAVRRLNDWVPQVRKAAREKLPEIAKSTVPECVVDALCVALSNWNSWGRIEDADKEVLLKILCEKEIAKSLRSKLIFSASGPMPSLFSQLGRTPILDGQIEEIAKSAIQPSVRAKAYRSLFEGRVIWIEGRKWVWTDIRYCEGRLKPIVGERKLEIETPLIDLLKRSSEDRSSIVRRVSAEILIRELGNLGVKAKEFAERFALDSSQAVSERGDFALKKLDEAERANAS	not soluble

Reference: the DeepSol protein solubility set
